B1: ADD1 (parent)
chain: LRHSFQKQQREKTRWLNSGRGDEA
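Note: lentivirally expressed fusions sorted by FACS into six bins by GFP to DsRed ratio, PSI derived from sequencing read proportions per bin multiplied by bin number.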

Variants of: B1
Assay: protein stability index of a GFP-peptide fusion (GPS, HEK-293T) (PSI 1-6); higher = more stable
Conditions: c terminus: a fixed tail appended
Variant LRHSFQKQQREKTRWLNSGPGDEA has a protein stability index of 4.17.
With LRHSFQKQQREKTRWLNSGWGDEA the protein stability index was 3.26.
LRHSFQKQQREKTRWLNSGKGDEA showed a protein stability index of 4.03.
LRHSFQKQQREKTRWLNSGSGDEA showed a protein stability index of 4.12.
With LRHSFQKQQREKTRWLNSGGGDEA the protein stability index was 3.71.
In the case of LRHSFQKQQREKTRWLNSGTGDEA, the protein stability index is reported as 3.75.
Work on LRHSFQKQQREKTRWLNSGNGDEA yielded a protein stability index of 3.62.
In the case of LRHSFQKQQREKTRWLNSGCGDEA, the protein stability index is reported as 3.91.
For LRHSFQKQQREKTRWLNSGYGDEA, the protein stability index was 3.47.
With LRHSFQKQQREKTRWLNSGIGDEA the protein stability index was 3.54.
Variant LRHSFQKQQREKTRWLNSGQGDEA has a protein stability index of 3.95.
Work on LRHSFQKQQREKTRWLNSGMGDEA yielded a protein stability index of 3.78.
In the case of LRHSFQKQQREKTRWLNSGEGDEA, the protein stability index is reported as 4.28.
For LRHSFQKQQREKTRWLNSGVGDEA, the protein stability index was 3.88.
LRHSFQKQQREKTRWLNSGHGDEA showed a protein stability index of 4.05.
With LRHSFQKQQREKTRWLNSGDGDEA the protein stability index was 4.88.
With LRHSFQKQQREKTRWLNSGLGDEA the protein stability index was 2.24.
For LRHSFQKQQREKTRWLNSGFGDEA, the protein stability index was 3.21.
In the case of LRHSFQKQQREKTRWLNSGAGDEA, the protein stability index is reported as 3.84.
With LRHSFQKQQRPKTRWLNSGRGDEA the protein stability index was 3.91.
Variant LRHSFQKQQRQKTRWLNSGRGDEA has a protein stability index of 2.87.
Variant LRHSFQKQQRTKTRWLNSGRGDEA has a protein stability index of 3.11.
For LRHSFQKQQRNKTRWLNSGRGDEA, the protein stability index was 2.57.
LRHSFQKQQRHKTRWLNSGRGDEA gave a protein stability index of 3.27.
In the case of LRHSFQKQQRIKTRWLNSGRGDEA, the protein stability index is reported as 2.21.
Variant LRHSFQKQQRLKTRWLNSGRGDEA has a protein stability index of 2.28.
With LRHSFQKQQRYKTRWLNSGRGDEA the protein stability index was 2.36.
Work on LRHSFQKQQRSKTRWLNSGRGDEA yielded a protein stability index of 3.13.
LRHSFQKQQRWKTRWLNSGRGDEA gave a protein stability index of 2.56.
Variant LRHSFQKQQRVKTRWLNSGRGDEA has a protein stability index of 2.88.
With LRHSFQKQQRMKTRWLNSGRGDEA the protein stability index was 2.26.
Work on LRHSFQKQQRRKTRWLNSGRGDEA yielded a protein stability index of 3.65.
In the case of LRHSFQKQQRKKTRWLNSGRGDEA, the protein stability index is reported as 3.17.
For LRHSFQKQQREKTTWLNSGRGDEA, the protein stability index was 3.15.
With LRHSFQKQQREKTPWLNSGRGDEA the protein stability index was 3.86.
LRHSFQKQQREKTCWLNSGRGDEA showed a protein stability index of 2.68.
LRHSFQKQQREKTEWLNSGRGDEA gave a protein stability index of 4.59.
LRHSFQKQQREKTNWLNSGRGDEA showed a protein stability index of 3.58.
Variant LRHSFQKQQREKTKWLNSGRGDEA has a protein stability index of 3.78.
In the case of LRHSFQKQQREKTVWLNSGRGDEA, the protein stability index is reported as 3.95.
For LRHSFQKQQREKTSWLNSGRGDEA, the protein stability index was 4.03.
For LRHSFQKQQREKTHWLNSGRGDEA, the protein stability index was 3.98.
For LRHSFQKQQREKTYWLNSGRGDEA, the protein stability index was 2.76.
For LRHSFQKQQREKTMWLNSGRGDEA, the protein stability index was 3.42.
With LRHSFQKQQREKTAWLNSGRGDEA the protein stability index was 3.58.
With LRHSFQKQQREKTFWLNSGRGDEA the protein stability index was 3.52.
Work on LRHSFQKQQREKTLWLNSGRGDEA yielded a protein stability index of 3.02.
LRHSFQKQQREKTQWLNSGRGDEA gave a protein stability index of 4.3.
With LRHSFQKQQREKTWWLNSGRGDEA the protein stability index was 3.25.
With LRHSFQKQQREKTGWLNSGRGDEA the protein stability index was 4.03.
LRHSFQKQQREKTDWLNSGRGDEA gave a protein stability index of 3.52.
LRHSFQKQQREKTIWLNSGRGDEA gave a protein stability index of 3.02.
With LRHSFQKQQREKTRWLNLGRGDEA the protein stability index was 3.39.
LRHSFQKQQREKTRWLNQGRGDEA showed a protein stability index of 3.55.
Variant LRHSFQKQQREKTRWLNTGRGDEA has a protein stability index of 3.51.
LRHSFQKQQREKTRWLNDGRGDEA gave a protein stability index of 3.11.
In the case of LRHSFQKQQREKTRWLNYGRGDEA, the protein stability index is reported as 3.79.
In the case of LRHSFQKQQREKTRWLNWGRGDEA, the protein stability index is reported as 3.51.
Work on LRHSFQKQQREKTRWLNCGRGDEA yielded a protein stability index of 3.26.
Work on LRHSFQKQQREKTRWLNIGRGDEA yielded a protein stability index of 3.85.
LRHSFQKQQREKTRWLNVGRGDEA gave a protein stability index of 3.53.
In the case of LRHSFQKQQREKTRWLNEGRGDEA, the protein stability index is reported as 4.28.
Work on LRHSFQKQQREKTRWLNHGRGDEA yielded a protein stability index of 3.19.
LRHSFQKQQREKTRWLNNGRGDEA gave a protein stability index of 3.96.
In the case of LRHSFQKQQREKTRWLNRGRGDEA, the protein stability index is reported as 2.63.
LRHSFQKQQREKTRWLNPGRGDEA showed a protein stability index of 3.93.
LRHSFQKQQREKTRWLNFGRGDEA gave a protein stability index of 2.87.
With LRHSFQKQQREKTRWLNKGRGDEA the protein stability index was 3.67.
Work on LRHSFQKQQREKTRWLNAGRGDEA yielded a protein stability index of 4.02.
LRHSFQKQQREKTRWLNGGRGDEA showed a protein stability index of 3.92.
LRHSFQKQQREKTRWLNMGRGDEA showed a protein stability index of 3.36.
Variant LRHSFQKQQREKTRWLNSGRADEA has a protein stability index of 4.
For LRHSFQKQQREKTRWLNSGREDEA, the protein stability index was 3.99.
LRHSFQKQQREKTRWLNSGRDDEA showed a protein stability index of 4.42.
Work on LRHSFQKQQREKTRWLNSGRCDEA yielded a protein stability index of 3.21.
Variant LRHSFQKQQREKTRGLNSGRGDEA has a protein stability index of 4.72.
Variant LRHSFQKQQREKTRVLNSGRGDEA has a protein stability index of 3.97.
LRHSFQKQQREKTRNLNSGRGDEA showed a protein stability index of 4.54.
Work on LRHSFQKQQREKTRALNSGRGDEA yielded a protein stability index of 4.07.
In the case of LRHSFQKQQREKTRRLNSGRGDEA, the protein stability index is reported as 4.62.
In the case of LRHSFQKQQREKTRELNSGRGDEA, the protein stability index is reported as 4.81.
LRHSFQKQQREKTRMLNSGRGDEA showed a protein stability index of 4.25.
LRHSFQKQQREKTRDLNSGRGDEA showed a protein stability index of 4.42.
Variant LRHSFQKQQREKTRCLNSGRGDEA has a protein stability index of 3.73.
LRHSFQKQQREKTRFLNSGRGDEA gave a protein stability index of 4.05.
LRHSFQKQQREKTRYLNSGRGDEA showed a protein stability index of 4.17.
With LRHSFQKQQREKTRHLNSGRGDEA the protein stability index was 5.01.
LRHSFQKQQREKTRPLNSGRGDEA gave a protein stability index of 4.66.
LRHSFQKQQREKTRQLNSGRGDEA showed a protein stability index of 4.84.
LRHSFQKQQREKTRSLNSGRGDEA showed a protein stability index of 4.68.
Variant LRHSFQKQQREKTRILNSGRGDEA has a protein stability index of 4.27.
LRHSFQKQQREKTRKLNSGRGDEA gave a protein stability index of 4.08.
Work on LRHSFQKQQREKTRLLNSGRGDEA yielded a protein stability index of 4.38.
LRHSFQKQQREKTRTLNSGRGDEA gave a protein stability index of 4.65.

Source: the supplement of paper PMC10567573
